According to publication PMC8034621:

Experiments:
[1] = target: RNA polymerase II CTD CTD (UniProt P24928); settings: cited from earlier work
[2] = target: biotinylated 4-heptad RNA polymerase II CTD peptide, Ser5 phosphorylated on all heptads; experiment: pull-down on streptavidin-coupled Dynabeads, SDS-PAGE stained with Coomassie Blue, band quantification; settings: biotinylated peptides of four CTD heptads; triplicate; parent: est. 1.0; read off a plot
[3] = target: biotinylated 4-heptad RNA polymerase II CTD peptide, Ser2 phosphorylated on all heptads; experiment: as above; settings: biotinylated peptides of four CTD heptads; triplicate; parent: est. 1.0; read off a plot
[4] = target: biotinylated 4-heptad RNA polymerase II CTD peptide, Ser5 phosphorylated on all heptads

Chain of human capping enzyme (CE/RNGTT) GTase with the disordered flanking regions (211–597), wild-type, O60942 R330A; K331A; R386A (O60942 211-597 R330A/K331A/R386A): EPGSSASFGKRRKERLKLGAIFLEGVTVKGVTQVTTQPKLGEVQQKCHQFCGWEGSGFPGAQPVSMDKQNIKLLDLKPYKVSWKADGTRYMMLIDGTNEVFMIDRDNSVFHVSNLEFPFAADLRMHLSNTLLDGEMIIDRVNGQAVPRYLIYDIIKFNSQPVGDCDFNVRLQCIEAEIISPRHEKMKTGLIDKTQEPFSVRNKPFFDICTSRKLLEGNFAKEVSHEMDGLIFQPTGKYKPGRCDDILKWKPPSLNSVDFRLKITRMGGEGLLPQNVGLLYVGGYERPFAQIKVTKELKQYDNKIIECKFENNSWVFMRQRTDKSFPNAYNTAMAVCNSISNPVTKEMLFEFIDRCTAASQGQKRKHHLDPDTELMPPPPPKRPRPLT
Chain of human capping enzyme (CE/RNGTT) GTase with the disordered flanking regions (211–597), wild-type, O60942 R358A; K403A; R411A (O60942 211-597 R358A/K403A/R411A): as the sequence (O60942 211-597 R330A/K331A/R386A) above, with A120R, A121K, R148A, A176R, K193A, R201A counted along it
Chain of human capping enzyme (CE/RNGTT) GTase with the disordered flanking regions (211–597), wild-type, O60942 R330A; K331A; R386A; R358A; K403A; R411A (O60942 211-597 R330A/K331A/R358A/R386A/K403A/R411A): as the sequence (O60942 211-597 R330A/K331A/R386A) above, with R148A, K193A, R201A counted along it
Chain of RNA polymerase II CTD CTD (P24928 1593-1970 A1835T): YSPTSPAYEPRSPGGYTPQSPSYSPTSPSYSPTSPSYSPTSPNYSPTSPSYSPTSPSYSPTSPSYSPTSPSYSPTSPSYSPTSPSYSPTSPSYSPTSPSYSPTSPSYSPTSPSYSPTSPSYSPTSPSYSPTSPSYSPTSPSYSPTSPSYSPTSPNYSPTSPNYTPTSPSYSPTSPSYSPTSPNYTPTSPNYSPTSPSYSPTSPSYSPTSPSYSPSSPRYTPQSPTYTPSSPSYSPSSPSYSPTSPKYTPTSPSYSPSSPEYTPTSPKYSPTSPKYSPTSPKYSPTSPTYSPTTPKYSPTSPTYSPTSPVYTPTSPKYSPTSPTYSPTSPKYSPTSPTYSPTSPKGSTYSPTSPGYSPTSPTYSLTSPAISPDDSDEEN
Chain of human capping enzyme (CE/RNGTT) GTase with the disordered flanking regions (211–597), wild-type (O60942 211-597): as the sequence (O60942 211-597 R330A/K331A/R386A) above, with A120R, A121K, A176R counted along it
Chain of mRNA capping enzyme GTase (O60942 229-597): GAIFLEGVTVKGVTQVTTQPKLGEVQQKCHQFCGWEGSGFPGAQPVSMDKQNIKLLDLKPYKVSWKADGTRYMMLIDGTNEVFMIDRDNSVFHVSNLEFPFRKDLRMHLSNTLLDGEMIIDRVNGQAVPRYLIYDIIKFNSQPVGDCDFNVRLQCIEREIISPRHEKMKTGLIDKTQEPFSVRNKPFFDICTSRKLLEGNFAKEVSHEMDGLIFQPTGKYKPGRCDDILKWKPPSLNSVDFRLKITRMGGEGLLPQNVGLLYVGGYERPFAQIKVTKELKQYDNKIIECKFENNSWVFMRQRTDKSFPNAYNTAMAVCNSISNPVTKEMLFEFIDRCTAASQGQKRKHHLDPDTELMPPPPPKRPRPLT

ratio to parent [2] | ratio to parent [3] | Substance | other results
 |  | mRNA capping enzyme GTase (from UniProt O60942) | Kd [1]: 139 µM
0.18 | 0.12 | human capping enzyme (CE/RNGTT) GTase with the disordered flanking regions (211–597), wild-type, O60942 R358A; K403A; R411A | 
 |  | human CE GTase (211–597) ΔCDS1 (R330A/K331A/R386A) (from UniProt O60942 211-597) (domain or fragment) | guanylyltransferase activity (32P-GMP bound to the GTase), 0-10 μM 4-heptad pSer5 CTD peptide, relative to basal activity [4]: 1.4 fold
0.43 | 0.2 | human capping enzyme (CE/RNGTT) GTase with the disordered flanking regions (211–597), wild-type, O60942 R330A; K331A; R386A | 
 |  | human capping enzyme (CE/RNGTT) GTase with the disordered flanking regions (211–597), wild-type (from UniProt O60942 211-597) (domain or fragment) | guanylyltransferase activity (32P-GMP bound to the GTase), 0-10 μM 4-heptad pSer5 CTD peptide, relative to basal WT activity [4]: 2.2 fold
0.03 | 0.035 | human capping enzyme (CE/RNGTT) GTase with the disordered flanking regions (211–597), wild-type, O60942 R330A; K331A; R386A; R358A; K403A; R411A | 
